Measurements published in US20050148763A1, “Peg-binding pth or peg-binding pth derivative” (Chugai Seiyaku Kabushiki Kaisha, priority 2002, published 2005).

Assays:
Format in all cases: in vivo
[1] = Pharmacokinetics and bioavailability in rats by subcutaneous route; settings: for BA: subcutaneous route; for AUC / MRT / Tmax / t ½: subcutaneous, 80 μg/mL at 1 mL/kg
Experimental: (§1) Each sample was adjusted to 80 μg/mL by dilution with 25 mmol/L citrate-phosphate buffer (pH 5.0) containing 100 mmol/L NaCl and 0.05 vol % Tween 20 to give a solution for administration. Male SD rats at 6 weeks of age (CLEA Japan, Inc.) were provided for this experiment. Intravenous injection was performed on rats having polyethylene tubes (SP-31, Natsume Seisakusho Co., Ltd.) inserted into the femoral artery and vein. The solutions thus prepared were each administered at a dose of 1 mL/kg through a polyethylene tube inserted into the femoral vein, and blood was collected through a polyethylene tube inserted into the femoral artery before administration and at 5, 15, 30 and 45 minutes as well as 1, 2, 4, 6, 8 and 24 hours after administration. Subcutaneous administration was performed on rats having polyethylene tubes inserted into the femoral artery. The solutions prepared above were each subcutaneously administered at a dose of 1 mL/kg to the dorsal neck region of the rats, and blood was collected in the same manner as used for intravenous injection. These blood samples were centrifuged to collect plasma and stored at −40° C. until assayed for PTH(1-34) or PEG-PTH(1-34) levels.
(§2) The level of PTH(1-34) or PEG-PTH(1-34) was determined by RIA analysis using a Rat PTH IRMA Kit (Immutopics). A Cobra Quantum Model 5005 gamma counter (Packard) was used to measure radioactivity for each sample. The plasma level of PTH(1-34) or PEG-PTH(1-34) was calculated from a calibration curve prepared using PTH(1-34) or PEG-PTH(1-34). The Winnonlin program Ver. 2.1 (Scientific Consulting Inc.) was used to analyze the time course of changes in the calculated plasma PTH(1-34) or PEG-PTH(1-34) levels (FIG. 3: by intravenous route; FIG. 4: by subcutaneous route) to calculate the following as pharmacokinetic parameters: time required to reach the maximum plasma level (Tmax); maximum plasma level (Cmax); area under the curve of plasma levels (AUC); plasma half-life (t1/2); total body clearance (Cltotal); mean residence time in the body (MRT); and bioavailability (BA). […]

[2] = Hypotensive effect in anesthetized rats; settings: sc
Experimental: The mono-methoxy 5 k PEG-PTH(1-34) prepared in Example 1(2) was also adjusted similarly to 36.5, 18.3 and 9.1 μg/mL (calculated as PTH(1-34)). The samples thus prepared were then stored on ice and restored to room temperature about 30 minutes before administration.
Female SD rats at 10 weeks of age (Charles River Japan, Inc.) were anesthetized by intraperitoneal administration of 50 mg/kg pentobarbital sodium (Abbott Laboratories). A catheter for blood pressure measurement and a catheter for anesthesia maintenance were inserted into the femoral artery and vein, respectively, of each rat. Anesthesia was maintained using a syringe pump (Terumo Corporation) to ensure continuous injection (at 22.5 mg/kg/hour) of pentobarbital sodium (powder form, Tokyo Kasei Kogyo Co., Ltd.) dissolved in physiological saline (Otsuka Pharmaceutical Co., Ltd.). On the other hand, each catheter for blood pressure measurement was filled with 100 U/mL heparin sodium (Novo Nordisk A/S) in physiological saline. To measure systemic blood pressure, a pressure transducer (Nihon Kohden Corporation) was connected to the catheter for blood pressure measurement and signals from the transducer were input to a blood pressure amplifier (Nihon Kohden Corporation). The resulting data were averaged for use as an indicator of systemic blood pressure. The output of systemic blood pressure was, in turn, input to a measuring unit for instantaneous heart rate (Nihon Kohden Corporation) to determine heart rate. These parameters were continuously recorded on a thermal pen recorder (Graphtec Corporation) at a speed of 5 mm/min. After surgery, an injection needle for administration of a test substance was inserted into the dorsal subcutaneous region of each rat. After each parameter had stabilized, test drugs were administered. […] This figure illustrates changes in blood pressure induced by administration of a negative control (buffer), 50 μg/kg hPTH (1-34) and 36.5 μg/kg 5 k PEG-PTH(1-34) in this order from the upper panel. In addition, the average value of blood pressure before PTH administration and the value at the maximum blood pressure drop after administration were measured for each case to determine the difference between these two values. […] The vertical axis represents the maximum blood pressure drop (mmHg) and the horizontal axis represents the amount of PTH administered.

[3] = Hypercalcemic effect of PEG-PTH(1-34) in normal female DDY mice
Experimental: (§3) 2 k and 5 k PEG-PTH(1-34) were also adjusted similarly to 30 nmol/mL (calculated as PTH) and allowed to stand on ice immediately before administration.
(§4) Male BDF1 mice at 5 weeks of age (Charles River Japan, Inc.) were measured for their body weight. Immediately before drug administration, blood was collected by orbital puncture into heparinized capillary tubes and measured for baseline levels of blood ionized calcium and pH using a Ca^2+/pH analyzer (Model 348/Bayer Medical Ltd.) to give the corrected level of ionized calcium at pH 7.4 for each sample. The mice received subcutaneous administration of each drug at a dose of 5 mL/kg. […] At 1, 3 and 6 hours after administration, blood was collected by orbital puncture to monitor the time course of corrected blood ionized calcium levels.
The same experiment was repeated on female DDY mice at 5 weeks of age (Charles River Japan, Inc.). The mice received subcutaneous administration of each drug at a dose of 5 mL/kg. […] At 1, 3 and 6 hours after administration, blood was collected by orbital puncture to monitor the time course of corrected blood ionized calcium levels.

[4] = Pharmacokinetics in rats by intravenous route; settings: 80 μg/mL at 1 mL/kg
Experimental: as §1, §2

[5] = Hypercalcemic effect of PEG-PTH(1-34) in normal male BDF1 mice; settings: for time of maximum increase in blood ionized calcium levels after administration: sc, hPTH(1-34) 50-500 nmol/kg, PEG-PTHs 150 nmol/kg
Experimental: as §3, §4

Substance | BA [1] [%] | AUC [1] [ng·h/mL] | MRT [1] [h] | Tmax [1] [h] | t ½ [1] [h] | hypotensive effect after administration (in words) ([2]; anesthetized female SD rats) | hypotensive effect over doses, maximum blood pressure drop (in words) ([2]; anesthetized rats, hPTH(1-34) 12.5-50 μg/kg, 5 k PEG-PTH(1-34) 9.1-36.5 μg/kg) | increase in blood ionized calcium levels (in words) ([3]; 150 nmol/kg sc) | time of maximum increase in blood ionized calcium levels after administration ([3]; sc, hPTH(1-34) 50-500 nmol/kg, 5 k PEG-PTH(1-34) 150 nmol/kg) [h] | AUC [4] [ng·h/mL] | Cltotal [4] [mL/min/kg] | MRT [4] [h] | t ½ [4] [h] | increase in blood ionized calcium levels (in words) ([5]; 150 nmol/kg sc) | time of maximum increase in blood ionized calcium levels after administration [5] | BA ([1]; listed as 2 k PEG-PTH (1-34)) [%] | BA ([1]; listed as 2 k PEG-PTH(1-34)) | increased blood ionized calcium level maintained until ([5]; 150 nmol/kg sc) [h]
5k PEG-hPTH(1-34): hPTH(1-34) reacted with mPEG 5 k-SPA, fraction having one 5 kDa PEG molecule per PTH molecule | ~71.0 | 126.793 | 5.706 | 0.813 | 6.758 | mild hypotensive effect after administration | much weaker effect than hPTH(1-34) when administered at a higher dose | gradual increase in blood ionized calcium levels to reach the same maximum value as observed with 500 nmol/kg hPTH(1-34) | 3 | 178.547 | 7.49 | 2.578 | 5.706 | gradual increase in blood ionized calcium levels to reach the same maximum value as observed with hPTH(1-34) | 3 h | – | – | –
2k PEG-hPTH(1-34): hPTH(1-34) reacted with mPEG 2 k-SPA, fraction having one 2 kDa PEG molecule per PTH molecule | – | 53.78 | 1.684 | 0.300 | 1.231 | – | – | – | – | 95.781 | 14.03 | 0.465 | 1.128 | almost the same increase in ionized calcium levels as observed with 500 nmol/kg hPTH(1-34) | one | 56.1 | about 56.1% | 3
